This is an account of results in patent publication US10745731B2, “Recombinant production method” (Hoffmann-La Roche Inc., priority 2015, dated 2020).

Data set [1] relates to HEK293F cells. The class given is cell-based. The procedure: (§1) To determine cell viability and viable cell density (VCD) 1 mL cultivation medium (cell suspension) was transferred into a Cedex low fouling sample cup. The cup was placed into a Vicell instrument (Beckman Coulter). The instrument mixes cells with trypan blue to stain dead cells. After analysis of 50 images VCD was calculated and viability was determined by calculation of the percentage of viable cell number in relation to the total cell number.

Data set [2] concerns HEK293F cells. Briefly: Transient gene expression in HEK293F cells: cell specific productivity of the expressed antibody. The class given is cell-based, human. The procedure:
HEK293F cells were cultivated in F17 medium (Life Technologies) in shaker flasks at 36.5° C., 7.0% CO2 and 80% humidity in a shaker incubator (Kuhner, Mytron). Cells were split every three to four days and were cultivated no longer than five weeks. To avoid overgrowth and to keep them in the exponential phase of growth, viable cell densities (VCD) never exceeded 60*10^5 cells/mL.
(§2) Transient gene expression is a 5-7 days lasting procedure. The standard operating procedure of this expression system is applicable to shaker flasks with various volumes of cell culture ranging from 80 mL to 2 L. First, half of the cell culture volume is seeded at a viable cell density (VCD) of 8*10^5 cells/mL. After two days of cultivation, cells are split to a VCD of about 12*10^5 cells/mL. On the next day, cells are transfected with a polyethylene imine (PEI)-based transfection reagent at a VCD between 20*10^5 cells/mL and 25*10^5 cells/mL. 3 hours after transfection, the production enhancer (if any) is added. 24 h after transfection, a feeding solution and a glucose bolus is supplemented to avoid the limitation of nutrients. Depending on cell viability, which should not decrease below 50%, the supernatant is harvested five to seven days post transfection and subjected to antibody purification.
(§3) To compare transient gene expression rates always the same plasmids encoding for one distinct antibody were co-transfected.
(§4) To co-transfect two plasmids equimolarily, the ratio of the base pair number of one plasmid to the total base pair number was calculated and multiplied with the total amount of DNA (0.5 mg/L). Plasmid one has a size of 10530 bp and plasmid two has a size of 7184 bp and were solved in water to a final concentration of 1 mg/mL. For transfection of one liter cell culture, 297 μL of plasmid one and 203 μl of plasmid two were dissolved in 40 mL phosphate buffered saline (PBS) at room temperature. 1.25 mL JetPEI® solution was added and the solution was mixed well. After incubation for 10-15 min., the mixture was added to the cells. The cells were transfected in a batch containing the whole cell culture necessary for every experiment to avoid variance arising from different transfection efficiencies.
(§5) 80 mL of the transfected cell culture batch was added to a 125 ml shaker flask. For every experiment, two or three 125 mL shaker flasks were used as biological replicates and treated the same way. Three hours after transfection, cells were split into 125 mL shaker flasks and the cellular treatments with small molecules or ligands were started. Basal protein expression was determined by untreated control samples. To compare samples with the standard operating procedure, cells were also treated with VPA to a final concentration of 4 mM or 3 mM. VPA and its analogues were dissolved in double distilled water. […] Tumor necrosis factor (TNF) alpha was reconstituted with PBS supplemented with 0.1% BSA. Flagellin was dissolved in sterile double distilled water. The applied molecules were not added to the cultivation directly, but diluted in 16 mL medium pre-warmed to 36.5° C. and added to the cultivation thereafter.
(§6) 24 h after transfection a feeding solution at 36.5° C. and 3 mg/mL glucose were added to the cultivation.
as §1
Total concentration of the transiently expressed antibody was determined by a turbidimetric test. One mL cell suspension was transferred into an Eppendorf cup and centrifuged for 10 min. at 10,000 rpm (9,300 g).

For another data set, the system named is HDAC. Particulars: description from the literature; cited from earlier work.
In data set [3] the test system is HEK293F cells. Briefly: Transient gene expression in HEK293F cells: IgG concentration / titer (turbidimetric test). The class given is cell-based, human. Particulars: 2 ng/mL, none=100, N=3. On the procedure: as §2, §3, §4, §5, §6
Total concentration of the transiently expressed antibody was determined by a turbidimetric test. One mL cell suspension was transferred into an Eppendorf cup and centrifuged for 10 min. at 10,000 rpm (9,300 g). The supernatant was transferred into a new cup and subjected to Cobas Integra 400 plus (Roche) analysis. With comparison to internal standard the absolute concentration was calculated.

In the case of `CCCC(CCC)C(N)=O` [valpromide], the cytotoxicity result in the data set on HEK293F cells [1] (3 mM) was “cytotoxic”. For the same molecule, the “toxicity (remark in productivity cell)” value in the data set with HEK293F cells [1] (employed concentration 3 mM) is recorded as “toxic”. In addition, in the data set on HEK293F cells [2] (2 mM, in words), the TGE enhancement entry was “Weak TGE enhancement”. Besides, the activity at 2000 µM in the data set on HEK293F cells [2] (Homo sapiens, HEK293F, employed concentration 2 mM, none=100, N=2, FIG. 4, read-out: relative cell specific productivity) was 155%. In addition, the activity at 3000 µM in the data set on HEK293F cells [2] (Homo sapiens, HEK293F, employed concentration 3 mM, none=100, N=2, FIG. 4, read-out: relative cell specific productivity) was found to be 0%. Further, the HDAC inhibitory activity entry in the data set on HDAC is listed as “very weak to no HDAC inhibitory activity”.

B1: Flagellin: Flagellin from Salmonella typhimurium, TLR5 agonist, NFκB activator (protein, UniProt P06179 2-495, looked up)
Flagellin: AQVINTNSLSLLTQNNLNKSQSALGTAIERLSSGLRINSAKDDAAGQAIANRFTANIKGLTQASRNANDGISIAQTTEGALNEINNNLQRVRELAVQSANSTNSQSDLDSIQAEITQRLNEIDRVSGQTQFNGVKVLAQDNTLTIQVGANDGETIDIDLKQINSQTLGLDTLNVQQKYKVSDTAATVTGYADTTIALDNSTFKASATGLGGTDQKIDGDLKFDDTTGKYYAKVTVTGGTGKDGYYEVSVDKTNGEVTLAGGATSPLTGGLPATATEDVKNVQVANADLTEAKAALTAAGVTGTASVVKMSYTDNNGKTIDGGLAVKVGDDYYSATQNKDGSISINTTKYTADDGTSKTALNKLGGADGKTEVVSIGGKTYAASKAEGHNFKAQPDLAEAAATTTENPLQKIDAALAQVDTLRSDLGAVQNRFNSAITNLGNTVNNLTSARSRIEDSDYATEVSNMSRAQILQQAGTSVLAQANQVPQNVLSLLR
Consider B1, for which the toxicity result in the data set with HEK293F cells [1] (compared amongst NFκB activators) was “mildest toxicity”. In addition, the “relative cell specific productivity” value with HEK293F cells [2] (2 ng/mL, none=100, N=3, FIG. 6A) is given as 135%; in the data set on HEK293F cells [2] (2 ng/mL, none=100, N=3, FIG. 8A), 135%; with HEK293F cells [2] (2 ng/mL, single treatment, none=100, N=3), 134%; in the data set with HEK293F cells [2] (10 ng/mL, none=100, N=2, FIG. 5) it was 154%. The “specific productivity after 96 hours” value in the data set on HEK293F cells [2] (2 ng/mL, single treatment, none 2.01, N=3) came to 2.27 pg/cell/day. In the data set with HEK293F cells [2] (BAY11-7082 added 24 hours after stimulation), the “TGE enhancement after BAY11-7082 treatment compared to the corresponding single treatment” value is listed as “significantly reduced”. Also, the entries for the “relative IgG concentration” value in the data set with HEK293F cells [3] (FIG. 6B) and in the data set on HEK293F cells [3] (FIG. 8B) were 133% and 128%, respectively.
